Laboratory results reported in FireProtDB (doi:10.1021/bi001900v).
Where “and” joins values, the source holds several entries; their conditions need not be identical. Equal entries are not always repeated.

Settings: Dickeya chrysanthemi, reversible: yes, whole UniProt chain shown; for Tm / unfolding enthalpy (calorimetric) / unfolding enthalpy (van 't Hoff): Thermal, DSC; for denaturant m value / denaturant midpoint (higher = more stable) / unfolding free energy: 25 °C, GdnHCl
[1] = pH 5, CD, Sodium phosphate 0.1 M, sodium chloride 150 mM
[2] = pH 5, CD, Sodium phosphate buffer, NaCl
[3] = pH 5, Fluorescence, Sodium phosphate 0.1 M, sodium chloride 150 mM
[4] = pH 5, fluorescence, Sodium phosphate buffer, NaCl
[5] = pH 7, CD, Sodium phosphate 0.1 M, sodium chloride 150 mM
[6] = pH 7, CD, Sodium phosphate buffer, NaCl
[7] = pH 7, Fluorescence, Sodium phosphate 0.1 M, sodium chloride 150 mM

B1: Pectate lyase C wild type, P11073 (protein)
chain: MKSLITPITAGLLLALSQPLLAATDTGGYAATAGGNVTGAVSKTATSMQDIVNIIDAARLDANGKKVKGGAYPLVITYTGNEDSLINAAAANICGQWSKDPRGVEIKEFTKGITIIGANGSSANFGIWIKKSSDVVVQNMRIGYLPGGAKDGDMIRVDDSPNVWVDHNELFAANHECDGTPDNDTTFESAVDIKGASNTVTVSYNYIHGVKKVGLDGSSSSDTGRNITYHHNYYNDVNARLPLQRGGLVHAYNNLYTNITGSGLNVRQNGQALIENNWFEKAINPVTSRYDGKNFGTWVLKGNNITKPADFSTYSITWTADTKPYVNADSWTSTGTFPTVAYNYSPVSAQCVKDKLPGYAGVGKNLATLTSTACK
For B1, the Tm (pH 4) was 56.5 °C, the “unfolding enthalpy (calorimetric)” value (pH 4) was 256 kcal/mol and the “unfolding enthalpy (van 't Hoff)” value (pH 4) was 174 kcal/mol. For the same protein, the denaturant m value [1] was 15.7 kcal/mol/M, the “denaturant midpoint (higher = more stable)” value (shortened to “denaturant midpoint”) [1] was 0.95 M and the unfolding free energy [1] was 14.9 kcal/mol. The denaturant m value [2] was 12.5 kcal/mol/M and 15.7 kcal/mol/M, the “denaturant midpoint” value [2] was 0.97 M and the unfolding free energy [2] was 14.9 kcal/mol. For the same protein, the denaturant m value [3] was 14.5 kcal/mol/M, the “denaturant midpoint” value [3] was 0.96 M and the unfolding free energy [3] was 14 kcal/mol. For the same protein, the denaturant m value [4] was 14.5 kcal/mol/M, the “denaturant midpoint” value [4] was 0.96 M and the unfolding free energy [4] was 14 kcal/mol. The Tm (pH 5) was 59.8 °C, the “unfolding enthalpy (calorimetric)” value (pH 5) was 270 kcal/mol and the “unfolding enthalpy (van 't Hoff)” value (pH 5) was 181 kcal/mol. For the same protein, the Tm (pH 6) was 56.5 °C, the “unfolding enthalpy (calorimetric)” value (pH 6) was 255 kcal/mol and the “unfolding enthalpy (van 't Hoff)” value (pH 6) was 203 kcal/mol. The denaturant m value [5] was 12.2 kcal/mol/M and 11.8 kcal/mol/M, the “denaturant midpoint” value [5] was 0.99 M and 0.98 M and the unfolding free energy [5] was 12.1 kcal/mol and 11.6 kcal/mol. For the same protein, the denaturant m value [6] was 12.2 kcal/mol/M and 11.8 kcal/mol/M, the “denaturant midpoint” value [6] was 0.99 M and 0.98 M and the unfolding free energy [6] was 12.1 kcal/mol and 11.6 kcal/mol. The denaturant m value [7] was 13 kcal/mol/M, the “denaturant midpoint” value [7] was 1 M and the unfolding free energy [7] was 13 kcal/mol. For the same protein, the Tm (pH 7) was 51.2 °C, the “unfolding enthalpy (calorimetric)” value (pH 7) was 240 kcal/mol and the “unfolding enthalpy (van 't Hoff)” value (pH 7) was 219 kcal/mol. For the same protein, the Tm (pH 8) was 46.5 °C, the “unfolding enthalpy (calorimetric)” value (pH 8) was 235 kcal/mol and the “unfolding enthalpy (van 't Hoff)” value (pH 8) was 201 kcal/mol.
